In US20240294614A1 (ACADEMY OF MILITARY MEDICAL SCIENCE PLA, published 2024):
Read-outs that look alike come from different tables or passages of the source.

T1: Hendra virus glycoprotein G (Hendra virus (HeV), UniProt O89343 71-604)
T1 sequence: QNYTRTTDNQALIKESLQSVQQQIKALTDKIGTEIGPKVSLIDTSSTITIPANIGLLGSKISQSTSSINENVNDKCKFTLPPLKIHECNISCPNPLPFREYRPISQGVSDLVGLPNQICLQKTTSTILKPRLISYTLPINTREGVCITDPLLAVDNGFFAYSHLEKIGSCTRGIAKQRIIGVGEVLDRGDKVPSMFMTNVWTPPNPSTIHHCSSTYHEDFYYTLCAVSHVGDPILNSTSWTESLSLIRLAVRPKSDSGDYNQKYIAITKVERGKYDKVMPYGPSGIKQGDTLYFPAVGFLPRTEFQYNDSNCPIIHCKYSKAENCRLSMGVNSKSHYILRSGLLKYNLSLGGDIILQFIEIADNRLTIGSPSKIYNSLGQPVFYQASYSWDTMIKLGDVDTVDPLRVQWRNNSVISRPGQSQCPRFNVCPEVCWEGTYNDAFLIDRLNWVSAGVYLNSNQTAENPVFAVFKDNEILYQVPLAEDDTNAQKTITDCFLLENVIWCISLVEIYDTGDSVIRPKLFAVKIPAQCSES

T2: Nipah virus Malaysia strain glycoprotein G (Nipah virus, Malaysia strain (NiV-MY), UniProt Q9IH62 71-602)
T2 sequence: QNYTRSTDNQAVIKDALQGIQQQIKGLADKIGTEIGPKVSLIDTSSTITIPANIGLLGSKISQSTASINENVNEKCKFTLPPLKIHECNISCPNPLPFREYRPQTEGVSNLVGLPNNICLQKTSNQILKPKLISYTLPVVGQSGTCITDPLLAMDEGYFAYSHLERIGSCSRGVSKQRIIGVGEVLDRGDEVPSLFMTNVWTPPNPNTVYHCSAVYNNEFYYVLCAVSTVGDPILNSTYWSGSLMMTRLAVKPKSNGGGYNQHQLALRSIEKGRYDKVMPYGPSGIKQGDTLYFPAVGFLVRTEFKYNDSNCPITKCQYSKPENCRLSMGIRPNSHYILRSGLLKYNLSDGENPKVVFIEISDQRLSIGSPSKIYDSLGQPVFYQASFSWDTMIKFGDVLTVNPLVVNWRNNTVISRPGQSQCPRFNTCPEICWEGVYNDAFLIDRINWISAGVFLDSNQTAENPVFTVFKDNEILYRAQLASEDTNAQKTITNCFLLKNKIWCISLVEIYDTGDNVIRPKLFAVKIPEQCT

B1: 1E5 (antibody, V domains shown)
VH: VQLQESGPGVVKPSETLSLTCAVSGGSISDTYRWSWIRQPPGKGLEWIGYIYGSATSTYYNPSLSSRVTISKDMSKNQFSLNLNSVTAADTAVYYCARDYQYYYSGSYPTPHNWFDVWGPGVLVTVSS
VL: DIQMTQSPSSLSASVGDRVTITCRASQGIIDYLSWYQQKPGKAPKLLISTASNLESGVPSRFSGSGSGTEFTLTISSLQPEDFATYSCLQGYTTPYTFGQGTKVEIKT
B2: 1B6 (antibody, V domains shown)
VH: VQLQESGPGPVKPSETLSLTCTVSGGSMSRGYDWNWIRQPPGKGLEWIGYIGDDGGRSNYNPSLKSRVTISKDSSKNQFSLKLGSVSAADTAVYYCARALRAIWYNSGWFYNSLDVWGRGVLVTVSS
VL: DIVLTQSPASLAVSPGQRATITCRASEGVSVFGRDLIHWYQQKPGQPPKLLIYQTSNRDTGVPARFSGSGSGTDFTLTINPVEADDAADYYCLQSKNSYSFGQGTKVEIKT
B3: 2A4 (antibody, V domains shown)
VH: QVQLQESGPGLVKPSETLSLTCPVSGASISSHWWTWIRQPPGKGLEWIGEIHGNSGSTNYNPSLKSRVTISKDASKNHFSLKLSSVTAADTAVYYCARDGHLGILVVFATSRFDVWGPGVLVTVSS
VL: DIQMTQSPSSLSASVGDTVTITCQASQGIANNLNWYQQKPGKAPKLLIYRASSLQSGIPSRFSGSGSGTDYTLTISSLQPEDFATYYCQQGYTYPRTFGQGTKVEIKT
B4: 2E7 (antibody, V domains shown)
VH: VQLQESGPGLVKPSETLSLTCSVSGGSISISNWWSWIRQSPGKGLEWIGYIYGSSGSTLYNPSLKSRVSISTDTSKNQFSLKLRSVTAADTAVYYCASPSIAATGDFDYWGQGVLVTVSS
VL: QSVLTQPPSASGAPGQSVTISCSGSSSNIGGNNVYWYQQLPGTAPKLLIYSSNQRPSGVPDRFSGSKSGTSASLAITGLRSEDEADYFCAVWDDSLGSPFFGGGTRLTVLR
notes: copies: 2 + 2

Assays:
[1] = biological target: T1, Hendra virus glycoprotein G
[2] = biological target: T2, Nipah virus Malaysia strain …
[3] = biological target: Nipah virus Bangladesh strain glycoprotein G (Nipah virus, Bangladesh strain (NiV-BD)); test: ELISA, G protein coated at 1 µg/mL, antibody 1:3 dilutions from 20 µg/mL
[4] = biological target: Nipah virus Bangladesh strain glycoprotein G (Nipah virus, Bangladesh strain (NiV-BD))
[5] = biological target: T2, Nipah virus Malaysia strain …; remark: listed apart in the source
[6] = biological target: T1, Hendra virus glycoprotein G; test: cell-based or functional assay
[7] = biological target: T2, Nipah virus Malaysia strain …; test: cell-based or functional assay
[8] = biological target: Nipah virus Bangladesh strain glycoprotein G (Nipah virus, Bangladesh strain (NiV-BD)); test: cell-based or functional assay
[9] = biological target: T1, Hendra virus glycoprotein G; remark: listed apart in the source
[10] = biological target: T2, Nipah virus Malaysia strain …; remark: listed apart in the source
[11] = biological target: Nipah virus Bangladesh strain glycoprotein G (Nipah virus, Bangladesh strain (NiV-BD)); remark: listed apart in the source
[12] = biological target: T1, Hendra virus glycoprotein G; test: ELISA, G protein coated at 1 µg/mL, antibody 1:3 dilutions from 20 µg/mL
[13] = biological target: T2, Nipah virus Malaysia strain …; test: as above
[14] = biological target: Nipah virus Bangladesh strain glycoprotein G (Nipah virus, Bangladesh strain (NiV-BD)); remark: listed apart in the source

Binder | IC50 (read off the curve) [1] [µg/mL] | IC50 (read off the curve) [2] [µg/mL] | EC50 [3] [µg/mL] | Kd [4] [nM] | IC50 (read off the curve) [5] [µg/mL] | IC50, neutralisation of HeV pseudovirus (HIV backbone, luciferase, 293T cells) [6] [µg/mL] | percent neutralisation of HeV pseudovirus at 1 µg/mL [6] [%] | percent neutralisation of NiV-MY pseudovirus at 1 µg/mL [7] [%] | percent neutralisation of NiV-BD pseudovirus at 1 µg/mL [8] [%] | Kd [9] [nM] | Kd [10] [nM] | IC50 (read off the curve) [11] [µg/mL] | EC50 [12] [µg/mL] | EC50 [13] [µg/mL] | IC50 (read off the curve) [14] [µg/mL]
B1 | ~0.2 | ~0.06 | 0.0026 | 0.171 | ~0.1 | 0.00574 | ~100 | ~100 | 100 | 0.785 | < 0.001 | 0.04 | 0.00034 | 0.00085 | 0.06
B2 |  |  | 0.0284 |  |  | 0.0163 | ~100 | ~100 | 100 |  |  |  | 0.0529 | 0.0639 | 
B3 |  |  | 0.0045 |  |  | 0.029 | ~100 | ~100 | 100 |  |  |  | 0.00737 | 0.0112 | 
B4 |  |  |  |  |  |  |  |  |  |  |  |  | 0.0701 | 0.0267 | 
